Among the data in publication PMC5444744, “Interaction between granulin A and enolase 1 attenuates the migration and invasion of human hepatoma cells” (Oncotarget, 2017) are Kd values, retold here.

By Kd is commonly meant the free concentration of one partner at which half of the binding sites on the other are occupied at equilibrium, for simple one-to-one binding. Low readings indicate a tighter complex, high ones a looser complex.

In this test the target is T1, ENO1 (bought, ATGen #ATGP0404) (UniProt P06733 1-434).
T1 construct: ENO1 (α-enolase), bought protein, ATGen #ATGP0404; also called α-enolase; source: bought: ATGen (#ATGP0404)
Kind of test: SPR; ENO1 immobilised directly on CM5 chip (8171 RU, 10 mM sodium acetate pH 5.0); GRN A 3.5-112.0 μM in HBS-EP (10 mM HEPES, 150 mM NaCl, 3 mM EDTA, 0.05% P20) at 30 μL/min; BIACORE T200; KD = Koff/Kon. To be noted: both partners purified. (In general: In SPR one partner is held on a chip, and binding of the other changes the refractive index at the surface.)

T1 sequence (P06733 whole entry): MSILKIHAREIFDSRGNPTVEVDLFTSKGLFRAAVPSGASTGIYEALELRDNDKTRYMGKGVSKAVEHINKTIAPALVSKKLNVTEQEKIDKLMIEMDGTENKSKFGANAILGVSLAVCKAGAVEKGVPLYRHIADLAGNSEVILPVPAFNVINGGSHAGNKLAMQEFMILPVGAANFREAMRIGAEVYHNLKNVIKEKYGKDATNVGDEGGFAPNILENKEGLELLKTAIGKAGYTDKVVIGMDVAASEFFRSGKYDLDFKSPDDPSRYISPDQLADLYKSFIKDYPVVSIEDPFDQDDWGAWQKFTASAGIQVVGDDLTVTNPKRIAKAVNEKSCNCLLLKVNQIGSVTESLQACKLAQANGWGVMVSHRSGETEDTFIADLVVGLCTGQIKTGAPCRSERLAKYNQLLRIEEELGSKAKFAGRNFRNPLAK

B1: Granulin A (His-GRN A) (peptide, UniProt P28799 281-336, looked up)
chain: DVKCDMEVSCPDGYTCCRLQSGAWGCCPFTQAVCCEDHIHCCPAGFTCDTQKGTCE
notes: granulin A (GRN A), a peptide of about 6 kDa with 12 cysteine residues, derived from proteolysis of progranulin (PGRN); The source and limits of the His-tagged GRN A are not described; The SPR methods call the analyte only 'GRN A'
On to B1, for which the Kd came to 56 µM.
